# Assay: yeast display, Sf9 membrane polyspecificity reagent, FACS + sequencing; frameworks hold sequencing errors
# Summary of the method: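 A nanobody's polyreactivity label depends on the gate it was sorted from. Yeast display cells were stained with 10% biotinylated, detergent-solubilized Sf9 membrane reagent for 1 hour at 4 °C, enriched on streptavidin microbeads and sorted by FACS. The low and high (top ~1%) gates were set on anti-HA fluorescence for expression and streptavidin fluorescence for reagent binding.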
row,Sequence,polyreactivity (PSR sort gate)
1,QVQLVESVVGLDQAGGSHRLSCAASGSIFATYAMGWYRHAPGKERELVAAITTRGGSTYYADSVKGRFTISRDNAKNTVYLLMYSLKPEDTAVYFCNALRWWSYGLNYCGQGTQVTVSS,high polyreactivity
2,QVQLVESGGGLVQAGGSLRLSCAASGFTFISYAMGWYSQAPGQERELVAAISSTGGSTYYADSVKGRFTSSRDTAKKTVYLQMNSLKPEETAVYYCNAVYWYTSEYDYWGQGTQVTVSS,high polyreactivity
3,QVQLVESGGGLVQAGGSLRLSCAASGSTFTWNAMGWYRQAPGKERELVASITWGGGGTYYADSVKGRFTISRDNAKNTVYLQMNSLKPEDTAVYYCAAGLWSPAYRGGYYYWGQGTQVTVSS,low polyreactivity
4,QVQLVESGGGLVQAGGSLRLSCAASGRIFARYAMGWYRQAPGKETELVAAISRGGSTKYADSVKGRFTISRDNAKNTVYLQMNSLNPVDTAVYYCARQLWGSPYGAYYAGDYWGQGTQVTVSS,low polyreactivity
5,HVQLQESGGCLVQAGGSLRLSCAARGSNSRLDSMGWNRQASGKVRELVAAIDNGSTTYYADSVKGRLTISRDNAKYSVYLQMNSLKAEDTAVYFCAAVRGGGGTHAYWGQGTQVTVSG,low polyreactivity
6,QVQLVESGGGLVQAGGSLRLSCAASGGIFAANAMGWYRPAPGKERELVAAISRSGGRTYYADSVKGRFTISRDNAKNTVYLQMNSLKPEDTAVYYCAATYQASNAWYDYWGQGTQVTVSS,high polyreactivity
7,QVQLVESGGGLVQAGGSLRLSCAASGLTFVKNVMGWYRQAPGKERELVAAISRRGGSTYYADSVKGRFTISRDNAKNTVYLQMNSLKPEDTAVYYCNAVLNQLSYIYPAVGYWGQGTQVTVSS,high polyreactivity
8,KVQLVESGGGLVQAGGSLRLSCAASGFTFYIYAMGWYRPAPGKEREVVAAISARGGSTYYADSVKGRFTISRDNAKTTGYLQMNSLKPEDTAVDYCNALYIYAEIYGRGFWGQGTQVTVSS,high polyreactivity
9,QVQLVESGGGLVQAGGSLRLSCAASGFTFDYNAMGWYRQAPGKERELVAAISNTGDSTYYADSVKGRFTISRDNAKNTVYLQMNSLKPEDTAVYYCAATSVPRYYYWGQGTQVTVSS,low polyreactivity
10,QFQLVESGGGLVQAGGSLRLSCAASGITFDVNAMGCYIQAPGKERELVASITAGGNTYYSDSVKGRFTISRDNAKNTVYLQMNSLKPVDTAVYFCAAVSTSLYCAGYDYWGQGTQVTVSS,low polyreactivity
11,QVQLVESGGGLVQAGGSLRLSCAASGSILRYYTMGWYRQAPGKERELVASIRATGGNTYYADSVKGRFTISRDNAKNTVYLQMNSLKPEDTAVYYCAARYRKKYYWGQGTQVTVSS,high polyreactivity
12,QVQLVESGGGLVQAGGSLRLSCAASGSILQSYAMGWYRQAPGKERELVAAISGSGGSTYYADSVKGRFTISRDNAKNTVYLQMNSLKPEDTAVYYCAKGPLYRTSRGEFGYWGQGTQVTVAS,low polyreactivity
13,QVQLVESGGGLVQAGGSLRLSCAASGSTFVWYAMGRYRLAPGKERELVAVIDWSGGSTSYADSVKGRFTISRDNAKNTVYLQMNSLKPEDTAVYYCNKGSSLFHWYYHWGQGTQVTVSS,low polyreactivity
14,QVQLVESGGGLVQAGGSLRLSCAASGRIFADYGMGWYRQAPGKERELVAAITDRGGTTYYADSVKGRFTISRDNAKNTVYLQMNSLKPEDTAVYYCAADTPDAPDYSGFYYWGQGTQVTVSS,low polyreactivity
15,QVQLAESGGCLVQAGGRLRLSCAASGSTFPHYAMGWYRQAPGKERELVAAISVRGGRTYYADSVKGRFTISRDNAKNNDSLQMNSLKPEDTAVYYCNKYYDVTKYGYWGQGTQVTVSS,high polyreactivity
16,HVQLVESGGGLVQAGGSLRLSCAASGITFPIYAMGWYRQAPGKEREFVAAINQRGGSTYYADSVKGRFTISRDNAKNTVYLQMNSLKPEDTAVDYCAAENGFNSLSRSGLHYWGQGTQVTVSS,low polyreactivity
17,QVQLVESGGGLVQAGGSLRLSCPASGFTFVTNAMGWYRQAPGKERELVAAISKSGDRTYYADSVKGRFTISRDNAKNTVYLQMNSLKPEDTAVYYCAAGNSNWGQGTQVTVSS,high polyreactivity
18,QVQLVESGGGLVQAGGSLRLSCAASGSTFPGNTMGSYRQAPGKERELVAAITWNGGSTYYADSVKGRFTISRDNAKNNVYLQMNRLKPEDTAVYYCATRARVTYYYWGLGTQVTVSS,high polyreactivity
19,QVQLVESGGGLVQAGGSLRLSCAASGRIFHRNAMGWYRQAPGKERELVARITRSGTSTYYADSVKGRFTISRDNAKNTVYLQMNSLKQEDTAVYYCAADNASPSLGEYNYWGQGTQVTVSS,low polyreactivity
20,QVQLVESGGGLVQAGGSLRLSCAASGSTFDWYAMGWYRQAPGKERELVAAISRGSRTYYADSVKGRFTISRDNAKNTVYLQKNSLKPEDTAVYYCARDKPTSYPDYYYWGQGTQVTVSS,high polyreactivity
21,QVQLVESGGGLVQAGGSLRLSCAASGYTFVIYAMGWYRQAPGKERELVAAITTIGGRTYYADSVKGRFTISRDNAKNTVYLQMNSLKPEDTAVYYCAADIRSNRLYDGGYWGQGTQVTVSS,low polyreactivity
22,QVQLVESGGGLVQAGGSLRLSCAASGSIFGYNVMGWYRQAPGKERELVAAISSSTGSTNYADSVKGRFTISRDNAKNTVYLQMNSLKPEDTAVYYCAVDPYVHWTTKLYDYWGQGSQVTVSS,low polyreactivity

row,Sequence,polyreactivity (PSR sort gate)
1,QVQLVESGGGLVQAGGSLRLSCAASGRTFYRYAMGSYRQAPGKEREFVAVISTDGSSTYYADSVKGRFTISRDNAKNTVYLQMNSLKPEDTAVYYCNKYVYGHKYGYRYSGVQDYYYWGQGTQVTVSS,high polyreactivity
2,QVQLVESGGGLVQAGGSLRLSCAASGYGMGWYRQAPGKEREFVAAITSGGSTNYAVSVKGRFTISRDNAKNTVYLHMNSLKPEDSAVYYCAAAYSLYGHRYDYWGQGTQVTVSS,high polyreactivity
3,QVQLVESGGGLVQAGGSLRLSCAASGSIFWRNMGWYRQAPGKERELVAAISYGSVSTYYADSVKGRFTISRDNAKNTVYLQMNSLKPEDTAVYYCAATLPGWYNEHDSWGLGTQVTVSS,low polyreactivity
4,QVQLVESGGGLVQAGGSLRLSCAASGFIFFEYAMGWYRQAPGKERELVAAISWSDDTTYYADSVKGRFTISRDNAKNTVYLQMNSLNPEDTAVYYCNVRYWGFYDYDYWGQGSQVTVSS,low polyreactivity
5,QVQLVESGGGLVQAGGSLRLSCAASGFIFRRYTMGWYRQAPGKERELVATITRSVNTDYADSVKGRFTISRDNAKNTVYLQMNSLKPEDTAVYYCAARKYYYFPVAYDYWGQGTQVTVSS,high polyreactivity
6,QDQLVESGGGLDQAGGSLRLSCAASGRTFLWNAMGWYRQAPGKERELVARINLSGGRTYYADSVKGRFTISRDNAKNTVYLQMNSLKPDDTAVYYCAATVVRYRRDSWGQGTQVTVSS,low polyreactivity
7,QVQLVESGGGLVQAGGSHRLSCAASGSTFVSNAMGGYRQAPGKERELVAGITFSGGSTYYADSVKGRFTISRDNAKNAVYLQMNSVKPEDTAVYYCAKRTYPSFYYWGQGTKVTVSS,low polyreactivity
8,QVQLVESGGGLVQAGGSLRLSCAASGRIFSYYAMGWYRQAPGKERELVAAISRSGVRTYYADSVKGRFTISRDNAKNTVYLQMNSLKAEDTAVYYCAASGKRFAYIKGRSRPAYGYDYWGQGTQVTVSS,high polyreactivity
9,QVQLVESGGGLVKAGGSLRLSCAASGFISSSYAMGWYRQAPGKERELVAVITRSGGSTYYADSVKGRFTISRDNAKNTVYLQMNSLKPEDTGVYYCNTDARSKKYIFDFDYWGQGTQVTVSS,high polyreactivity
10,QVQLVESGGGLVQAGGSLRLSCAASGLIFSAYDMGWYRQAPGKERELVASITSGGSTYYADSVKGRFTISRDNAKNTVYLQMNSLKPEDTAVYYCNADGGWYQYRWRYIEGEYWGQGTQVTLSS,low polyreactivity
11,QVQLVESGGGLVQAGGSLRLSCAASGSTFESNAMGWYRQAPGKERELVAAISRGGNTYYADSVKGRFTISRDNAKNTVYLQMNSLKPEDTAVYYCAADGAGWLDYGYWGQGTQVTVSS,low polyreactivity
12,QVQLVESGGGLVQAGGSLRLSCAASGRTFWNAMGWYRQEPGKERELVATITSGGITNYADSVKGRFTISRDNAKNTVYLQMNSLKPEDTAVYYCAARPYTWRNFRPSDYWGQGTQVTVSS,high polyreactivity
13,QVQLVESGGGLVQAGGSLRLSCAASGNIFGHYTMGGYRQAPGKERELVAAISRTGGRTYYADSVKGRFTISRDNAKKTVYLQMNSLKPEDTAVYYCAADKGGTYFNGDSWGQGTQVTVSS,high polyreactivity
14,QVQLVESGGGLVQAGGSLRLSCAASGITFGRNTMGWYRQAPGKERELVAAIDSGGNTYADSVKGRFTISRDNAKNTVYLQMNSLKPEDTAVYYCAVDGGEFSSYGYWGQGTEVTVSS,low polyreactivity
15,QVQLVESGGGLVQAGGSLRLSCAASGLTFRKNAMGWYRQAPGKERELVAAISFSGDRTYYADSVKGRFTISRDNAKNTVYLQMNSLKPEDTAVYYCAARSGVPGLEYDYWGQGTQVTVSS,low polyreactivity
16,QVQLVESGGGLVQAGGSLRLSCAASGIIFGKYDMGWYRQAPGKERELVAAITSGTSTNYADSVKGRFTISRDNAKNTVYLQMNSLKPEDTAVYYCAADVYLYYPYFGHRRYNYWGQGTQVTVSS,high polyreactivity
17,QVQLVESGGGLVQAGGSLRLSCAASGRIFDYYTMGWYRQAPGKERELVAGINSGDSTYYADYVKGRFTISRDNAKNTVYLQMNSLKPEDTAVYYCAASADWWYEYWGQGTQVTVSS,high polyreactivity
18,QVQLVESGGGLVQAGGSLRLSCAASGRIFPWNAMGWYRQAPGKERELVAAISFSAGRTYYADSVKGRFTISRDNAKTTVYLQMTSLKPEDTAVYFCTKASYWGSGFDYWGQGTQVTVSS,low polyreactivity
19,QVQLVESGGGLVQAGASLRLSCAASGRIFGVYAMGWYRQAPGKDRELVAGINGGDSTYYADSVKGRFTISRDNAKNTVYLQINSLKPEDTAVYYCAAQADESGSNYDYWGQGTQVTVSS,low polyreactivity
20,QVQLVESGGGLVQAGGSLRLSCAASGFTFGDYAMGWYRQAPGKERELVAVISSGGSTYYADSVKGRFTISRDNAKNTVYLQMNSLKPEDTAVYYCAKYVFRVWYHVFEVDYWGQGTQVTVSS,low polyreactivity
21,QVQLQESGGGLVKAGGSLRLSCAASGNISPRDAMGWYRQAPGEERDLVASNAYSAITYYADCVKGRYTISRDNAKNTVYLQINSLKPEDTEVYYCAVYQFTYPVFPAYWGQGTQVTVSS,low polyreactivity
